The results in this text go back to patent US20250263470A1.

The target in test [1] is HA of influenza B virus B/Hong Kong/330/2001 (victoria) (influenza B virus B/Hong Kong/330/2001). The experiment in a line: cell-based or functional assay.
Test [2] concerns the target HA of influenza B virus B/Hong Kong/5/72 (influenza B virus B/Hong Kong/5/72). The experiment in a line: cell-based or functional assay.
The target of test [3] is HA of influenza B virus B/Lee/40 (influenza B virus B/Lee/40) (UniProt P03460). The experiment in a line: cell-based or functional assay.
For test [4], the target named is HA of influenza B virus B/Malaysia/2506/2004 (victoria) (influenza B virus B/Malaysia/2506/2004). Put plainly: cell-based or functional assay.
Test [5] addresses HA of influenza B virus ca B/Ann Arbor/1/66 (influenza B virus B/Ann Arbor/1/66). Put plainly: cell-based or functional assay.
Test [6] addresses HA of influenza B virus ca B/Ann Arbor/2/94 (yamagata) (influenza B virus B/Ann Arbor/2/94). The experiment in a line: cell-based or functional assay.
Test [7] deals with HA of influenza B virus ca B/Beijing/243/97 (victoria) (influenza B virus B/Beijing/243/97). The experiment in a line: cell-based or functional assay.
In test [8] the target is HA of influenza B virus ca B/Brisbane/60/2008 (victoria) (influenza B virus B/Brisbane/60/2008). Put plainly: cell-based or functional assay.
The target in test [9] is HA of influenza B virus ca B/Johannesburg/5/99 (yamagata) (influenza B virus B/Johannesburg/5/99). The experiment in a line: cell-based or functional assay.
In test [10] the target is HA of influenza B virus ca B/Yamanashi/166/98 (yamagata) (influenza B virus B/Yamanashi/166/98). The experiment in a line: cell-based or functional assay.
In test [11] the target is recombinant HA derived from Victoria lineage strain B/BNE/08 (B/Brisbane/60/2008) (influenza B virus B/Brisbane/60/2008). The experiment in a line: ELISA on coated recombinant HA, average of three experiments. On the technique in general: ELISA stands for enzyme-linked immunosorbent assay.
Test [12] has as its target recombinant HA derived from Yamagata lineage strain B/FLA/06 (B/Florida/4/2006) (influenza B virus B/Florida/4/2006). Described as above.
Test [13] addresses HA of influenza B virus B/Ohio/1/2005 (victoria) (influenza B virus B/Ohio/1/2005). Put plainly: cell-based or functional assay.
Test [14] addresses HA of influenza B virus B/Shanghai/361/02 (yamagata) (influenza B virus B/Shanghai/361/02). The experiment in a line: cell-based or functional assay.
Test [15] addresses HA of influenza B virus B/Sichuan/379/99 (yamagata) (influenza B virus B/Sichuan/379/99). The experiment in a line: cell-based or functional assay.
Test [16] concerns the target HA of influenza B virus B/Yamagata/16/88 (yamagata) (influenza B virus B/Yamagata/16/88). Put plainly: cell-based or functional assay.
The target in test [17] is HA of influenza B virus ca B/Georgia/02/98 (yamagata) (influenza B virus B/Georgia/02/98). The experiment in a line: cell-based or functional assay.
The target in test [18] is HA of influenza B virus ca B/Victoria/504/2000 (yamagata) (influenza B virus B/Victoria/504/2000). The experiment in a line: cell-based or functional assay.
The target in test [19] is recombinant HA derived from influenza A subtype H9 (A/chicken/HK/G9/97 (H9N2)) (influenza A virus A/chicken/Hong Kong/G9/97 (H9N2)). The experiment in a line: ELISA on coated recombinant H9 HA.
Test [20] deals with recombinant HA derived from Victoria lineage strain B/BNE/08 (B/Brisbane/60/2008) (influenza B virus B/Brisbane/60/2008). The experiment in a line: ELISA on coated recombinant HA, unpurified IgG.
Test [21] has as its target recombinant HA derived from Yamagata lineage strain B/FLA/06 (B/Florida/4/2006) (influenza B virus B/Florida/4/2006). The experiment in a line: ELISA on coated recombinant HA, unpurified IgG.

Usually EC50 stands for the concentration at which the effect is half-maximal.

Changes are numbered by the printed parent chain.

B1: FBD-56 (antibody, V domains shown)
VH: EVQLVESGGHLVQPGRSLRLSCAASGFTFEDYAMNWVRQAPGKGLEWVSVISWDSGRIGYADSVKGRFTISRDNAKNSSYLQMNSLRPEDTALYYCVRDMLAYYSDNSGKKYNVYGMDVWGQGTTVTVSS
VL: EIVLTQSPATLSLSPGERATLSCRASQSVSTFLAWYQQKPGQAPRLLMYDASNRATGIPARFSGSGSGTDFTLTISSLEPEDFAIYYCQQRSHWPPIFGQGTRLEIK
In the case of B1, the Neutralization (Ave IC50 ug/ml) is 0.038 µg/mL in test [1]; 0.051 µg/mL in [2]; 0.004 µg/mL in test [3]; 0.058 µg/mL in test [4]; 0.035 µg/mL in test [5]; 1.25 µg/mL in test [6]. For the same molecule, the Neutralization (Ave IC50 ug/ml) in test [7] is 0.016 µg/mL; in test [8] it was 0.01 µg/mL; in test [9], 0.021 µg/mL; in test [10] it was 0.133 µg/mL. The EC50 in test [11] was found to be 0.03 µg/mL; in test [12], 0.024 µg/mL.

B2: FBD-94 (antibody, V domains shown)
VH: EVQLVESGGGLVQPGRSLRLSCAVSGFIFEDYAINWVRQAPGKGLEWVSIISWDSGRIGYADSVRGRFTISRDNAKNSSFLQMNSLRPEDTAVYYCVKDMLAYYYDGSGIRYNLYGMDVWGQGTTVTVSS
VL: B1 VL with Q27R, V29I, S30T, M48I, I58V, S76N, E81D, S92D
As for B2, the Hemagglutination Inhibition Titer in test [1] is 10 nM; in test [2], 3 nM; in [3], 1 nM; in [4] it was 10 nM; in test [13], 10 nM; in [14] it was 0 nM. The Hemagglutination Inhibition Titer is 5 nM in [15]; 250 nM in test [16]; 10 nM in [5]; 5 nM in test [6]; 10 nM in test [7]; 4 nM in test [8]. Moreover, the Hemagglutination Inhibition Titer was found to be 8 nM in [17], 10 nM in test [9], 8 nM in [18] and 10 nM in [10]. Further, the Neutralization (Ave IC50 ug/ml) was 0.021 µg/mL in test [1]; 0.017 µg/mL in [2]; 0.009 µg/mL in [3]; 0.023 µg/mL in test [4]; 0.014 µg/mL in test [5]; 0.891 µg/mL in test [6]. The Neutralization (Ave IC50 ug/ml) came to 0.005 µg/mL in [7], 0.006 µg/mL in test [8], 0.012 µg/mL in test [9] and 0.012 µg/mL in test [10]. In addition, the EC50 worked out at 0.016 µg/mL in test [11] and 0.013 µg/mL in test [12].

B3: FBC-39 LSL (antibody, V domains shown)
VH: EVQLVESGGGLVKPGGSLRLSCAASGLSFLNAWMSWVRQAPGKGLEWVGRIKSNTDGGTTDYAAPVKGRFTISRDDSKNTLYLQMSSLKTEDTAVYYCTTDGPYSDDFRSGYAARYRYFGMDVWGQGTTVTVSS
VL: DIQMTQSPSSVSASVGDRVTITCRASQDISTWLAWYQQKPGKAPKLLIYAASSLQSGVPSRFSGSGSGTDFTLTISSLQPEDFATYYCQQANSFPPTFGQGTKLEIK
As to B3, the Neutralization (Ave IC50 ug/ml) in test [1] turned out to be 0.172 µg/mL; in test [2], 0.019 µg/mL; in [3], 0.014 µg/mL; in [4], 0.094 µg/mL; in [15] it was 0.026 µg/mL; in test [5] it was 0.027 µg/mL. Besides, the Neutralization (Ave IC50 ug/ml) in test [6] was 0.033 µg/mL; in [7], 0.182 µg/mL; in test [8], 0.1 µg/mL; in [10], 0.014 µg/mL. Besides, the values for the EC50 in [19], in [20] and in [21] were 41.7 µg/mL, 0.152 µg/mL and 0.021 µg/mL, respectively.

B4: FBC-39 FSS (antibody, V domains shown)
VH: B3 VH with L27F, L30S
VL: B3 VL
Take B4: the EC50 in test [20] is over 1 µg/mL; in [21], 0.019 µg/mL.

B5: FBC-39 LTS (antibody, V domains shown)
VH: B3 VH with S28T, L30S
VL: B3 VL
Turning to B5, the EC50 in test [20] was over 1 µg/mL; in [21] it was 0.013 µg/mL.

B6: FBC-39 FTL (antibody, V domains shown)
VH: B3 VH with L27F, S28T
VL: B3 VL
Take B6: the Neutralization (Ave IC50 ug/ml) in [1] stood at 0.121 µg/mL; in test [2], 0.022 µg/mL; in [3], 0.013 µg/mL; in test [4] it was 0.074 µg/mL; in test [15] it was 0.023 µg/mL; in test [5], 0.026 µg/mL. Also, the Neutralization (Ave IC50 ug/ml) in [6] was found to be 0.023 µg/mL; in test [7] it was 0.134 µg/mL; in [8], 0.098 µg/mL; in test [10] it was 0.007 µg/mL. Further, the EC50 in test [19] stood at 46.1 µg/mL; in [20] it was 0.118 µg/mL; in [21], 0.017 µg/mL.

B7: FBC-39 LTL (antibody, V domains shown)
VH: B3 VH with S28T
VL: B3 VL
For the molecule B7, the Neutralization (Ave IC50 ug/ml) came out at 0.084 µg/mL in [1]; 0.018 µg/mL in test [2]; 0.01 µg/mL in test [3]; 0.076 µg/mL in [4]; 0.023 µg/mL in test [15]; 0.023 µg/mL in [5]. Also, the Neutralization (Ave IC50 ug/ml) in [6] came out at 0.023 µg/mL; in [7] it was 0.152 µg/mL; in [8], 0.151 µg/mL; in [10], 0.01 µg/mL. In addition, the EC50 in test [19] was 6.3 µg/mL; in [20] it was 0.114 µg/mL; in test [21] it was 0.017 µg/mL.

B8: FBC-39 FSL (antibody, V domains shown)
VH: B3 VH with L27F
VL: B3 VL
Turning to B8, the Neutralization (Ave IC50 ug/ml) in test [1] is 0.132 µg/mL; in test [2], 0.019 µg/mL; in test [3], 0.011 µg/mL; in [4], 0.076 µg/mL; in test [15], 0.022 µg/mL; in test [5] it was 0.034 µg/mL. Further, the Neutralization (Ave IC50 ug/ml) in test [6] was found to be 0.023 µg/mL; in test [7], 0.195 µg/mL; in test [8] it was 0.08 µg/mL; in test [10], 0.009 µg/mL. For the same molecule, the EC50 turned out to be 0.273 µg/mL in test [20] and 0.014 µg/mL in [21].
